Assays:
[1] = biological target: GST-tagged 16 kDa domain of protein 4.1R (human); test: SPR
[2] = biological target: T1, GST-tagged α4 repeat region of α-spectrin (human, UniProt P02549 370-475); test: SPR
T1 sequence (looked up): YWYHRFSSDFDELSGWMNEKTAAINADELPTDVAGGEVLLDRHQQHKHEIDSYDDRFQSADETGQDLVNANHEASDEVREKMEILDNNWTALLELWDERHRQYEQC

Chain of GST-tagged 16 kDa domain of protein 4.1R (human) (P11171 whole entry, the tested form may be a part): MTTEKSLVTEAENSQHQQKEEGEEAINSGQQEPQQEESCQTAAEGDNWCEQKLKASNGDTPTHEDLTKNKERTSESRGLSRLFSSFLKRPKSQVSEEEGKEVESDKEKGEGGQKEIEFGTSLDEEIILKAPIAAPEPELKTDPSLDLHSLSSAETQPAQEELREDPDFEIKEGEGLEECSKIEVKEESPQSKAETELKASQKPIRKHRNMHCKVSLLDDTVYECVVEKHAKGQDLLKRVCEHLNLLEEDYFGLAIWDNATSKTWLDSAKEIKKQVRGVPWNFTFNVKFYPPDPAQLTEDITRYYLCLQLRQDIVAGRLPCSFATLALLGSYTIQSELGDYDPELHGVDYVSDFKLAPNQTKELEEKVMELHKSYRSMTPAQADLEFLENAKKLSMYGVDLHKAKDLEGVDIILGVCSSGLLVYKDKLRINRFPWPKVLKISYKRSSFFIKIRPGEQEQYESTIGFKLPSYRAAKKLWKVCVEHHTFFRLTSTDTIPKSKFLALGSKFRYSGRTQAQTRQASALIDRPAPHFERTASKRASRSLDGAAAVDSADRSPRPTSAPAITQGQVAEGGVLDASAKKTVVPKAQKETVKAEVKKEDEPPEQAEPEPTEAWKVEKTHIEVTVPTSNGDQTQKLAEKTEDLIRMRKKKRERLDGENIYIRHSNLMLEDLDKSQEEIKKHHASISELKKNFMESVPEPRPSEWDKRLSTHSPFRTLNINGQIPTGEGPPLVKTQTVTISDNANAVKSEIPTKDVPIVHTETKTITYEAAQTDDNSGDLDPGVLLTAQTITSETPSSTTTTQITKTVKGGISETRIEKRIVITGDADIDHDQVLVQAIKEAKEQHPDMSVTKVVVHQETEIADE

B1: SBP1-C (analyte of the surface plasmon resonance) (domain or fragment)
chain: GKRKGYYLAKKQKKEQMLEQNPEQNPEQNPEQNAQQNAQQNAQQNAQQNSQQNTQQNTQQNTQQKTQQNPQQNAQKTHNNNPQPNPQQKQLLEKPKDKLL
- Ka [1]: 1.73e+07 M⁻¹
- Kd [1]: 58.5 nM
- koff [1]: 0.000459 s⁻¹
- Ka [2]: 5.7e+07 ± 1.28 M⁻¹
- Kd [2]: 20.4 nM
- koff [2]: 0.00031 ± 0.42 s⁻¹
